The target in data set [1] is GST-E2 (HCV envelope glycoprotein E2) (Hepatitis C virus) (UniProt P27958). In words: competition. The note with it: decreased from 36.7% without aptamer.
Data set [2] concerns the target HCV envelope glycoprotein E2 (expressed on CT26-HCV-E2 cells) (Hepatitis C virus) (UniProt P27958). Nature of the data set: flow. The note with it: strongest binding among rounds; 8 ug ssDNA with 10^6 cells.

Sequence of HCV envelope glycoprotein E2 (expressed on CT26-HCV-E2 cells) (Hepatitis C virus) (P27958 384-746): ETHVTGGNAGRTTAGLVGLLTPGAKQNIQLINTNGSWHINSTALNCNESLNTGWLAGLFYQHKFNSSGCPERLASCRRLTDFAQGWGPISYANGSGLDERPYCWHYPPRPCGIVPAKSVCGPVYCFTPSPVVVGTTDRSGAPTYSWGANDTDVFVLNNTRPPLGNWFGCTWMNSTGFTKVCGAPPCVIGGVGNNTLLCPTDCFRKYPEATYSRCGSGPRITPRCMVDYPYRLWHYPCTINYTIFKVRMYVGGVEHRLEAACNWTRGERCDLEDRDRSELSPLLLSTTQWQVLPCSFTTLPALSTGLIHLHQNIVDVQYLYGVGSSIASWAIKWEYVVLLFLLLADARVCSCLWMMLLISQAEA
Sequence of GST-E2 (HCV envelope glycoprotein E2) (Hepatitis C virus) (P27958 384-746): as above

“GCGGAATTCTAATACGACTCACTATAGGGAACAGTCCGAGCCNNNNNNNNNNNNNNNNNNNNNNNNNNNNNNGGGTCAATGCGTCATA [13th round ssDNA aptamer library]”: the activity (% E2 binding to Huh 7.5.1 cells) in data set [1] came out at 23.2. The binding (% cells bound) in data set [2] was found to be 89.
